Experiment [1] addresses T1, Recombinant mouse FGF9 (fibroblast growth factor 9) (mouse). As to the kind of experiment: FGF9 immobilised on heparin-sepharose, bound receptor-AP measured by alkaline phosphatase activity.
For experiment [2], the target named is T1, Recombinant mouse FGF9 (fibroblast …). As to the kind of experiment: 125I-FGF9 binding to FGFR3 transfected CHO-KI cells at 4 C, in the presence of 1 mg/ml heparin.
Experiment [3] shares this target. As to the kind of experiment: 125I-FGF9 binding to FGFR3 transfected CHO 745 cells at 4 C, in the presence of 1 mg/ml heparin.

The source of these data is patent publication US6447783 (YEDA RESEARCH AND DEVELOPMENT, dated 2002).

B1: Soluble extracellular domain of murine FGFR1 coupled to human placental alkaline phosphatase (receptor)
chain: RPAPTLPEQAQPWGVPVEVESLLVHPGDLLQLRCRLRDDVQSINWLRDGVQLVESNRTRITGEEVEVRDSIPADSGLYACVTSSPSGSDTTYFSVNVSDALPSSEDDDDDDDSSSEEKETDNTKPNRRPVAPYWTSPEKMEKKLHAVPAAKTVKFKCPSSGTPNPTLRWLKNGKEFKPDHRIGGYKVRYATWSIIMDSVVPSDKGNYTCIVENEYGSINHTYQLDVVERSPHRPILQAGLPANKTVALGSNVEFMCKVYSDPQPHIQWLKHIEVNGSKIGPDNLPYVQILKTAGVNTTDKEMEVLHLRNVSFEDAGEYTCLAGNSIGLSHHSAWLTVLEALEERPAVMTSPLYLE
notes: extracellular domain; Collected from conditioned medium of transfected NIH 3T3 cells; also called FGFR1 fusion protein; FGFR-alkaline phosphatase fusion protein; not shown: human placental alkaline phosphatase
As for B1, in experiment [1], the binding result is reported as “no binding”.

B2: Full length mouse FGFR3 expressed in CHO cells (wild type KI and heparan-sulfate deficient 745) (receptor)
chain: EPPGPEQRVVRRAAEVPGPEPSQQEQVAFGSGDTVELSCHPPGGAPTGPTVWAKDGTGLVASHRILVGPQRLQVLNASHEDAGVYSCQHRLTRRVLCHFSVRVTDAPSSGDDEDGEDVAEDTGAPYWTRPERMDKKLLAVPAANTVRFRCPAAGNPTPSISWLKNGKEFRGEHRIGGIKLRHQQWSLVMESVVPSDRGNYTCVVENKFGSIRQTYTLDVLERSPHRPILQAGLPANQTAILGSDVEFHCKVYSDAQPHIQWLKHVEVNGSKVGPDGTPYVTVLKTAGANTTDKELEVLSLHNVTFEDAGEYTCLAGNSIGFSHHSAWLVVLPAEEELMETDEAGSVYAGVLSYGVVFFLFILVVAAVILCRLRSPPKKGLGSPTVHKVSRFPLKRQVSLESNSSMNSNTPLVRIARLSSGEGPVLANVSELELPADPKWELSRTRLTLGKPLGEGCFGQVVMAEAIGIDKDRTAKPVTVAVKMLKDDATDKDLSDLVSEMEMMKMIGKHKNIINLLGACTQGGPLYVLVEYAAKGNLREFLRARRPPGMDYSFDACRLPEEQLTCKDLVSCAYQVARGMEYLASQKCIHRDLAARNVLVTEDNVMKIADFGLARDVHNLDYYKKTTNGRLPVKWMAPEALFDRVYTHQSDVWSFGVLLWEIFTPGGPSPYPGIPVEELFKLLKEGHRMDKPASCTHDLYMIMRECWHAVPSQRPTFKQLVEDLDRILTVTSTDEYLDLSVPFEQYSPGGQDTPSSSSSGDDSVFTHDLLPPGPPSNGGPRT
notes: whole, on cells; also called FGFR3 transfected CHO-KI cells
For the molecule B2, the values for the dissociation constant Kd in experiment [2] and in experiment [3] were 0.06 nM and 0.1 nM, respectively.
